Assay results reported in patent US20180112194A1, “MUTANT HUMAN DEOXYCYTIDINE KINASE” (Centre National De La Recherche Scientifique, priority 2015, published 2018).
Where two headings read alike, the source gives them in different places.

How the values were obtained:
[1] = test system: Messa10K cells; details: for efficiency of SIN vectors versus wt vectors / plateau of maximum mortality: gemcitabine; for efficiency of SIN vectors versus wt vectors: Messa 10K, data not shown
Protocol: Methods to measure sensitivity of a cell, such as a eukaryotic cell are known to the skilled in the art. In one example, cells were transduced with a vector comprising for example the mutant “M36” or the wild-type hdCK. Therefore, 1×10^6 cells were contacted with 1 ml of 1:5 diluted viral vectors rescued from the isolated clones. Transduced cells were selected, for example, by adding puromycin 24 h after transduction using 0.6 μg/ml to HEK-293T cells, 0.6 μg/ml to HEK-293T-CD4^+ cells, 0.5 μg/ml to Messa10K cells. The transduced cells were then for example seeded at 5,000 cells per well in a 96-well plate and grown overnight at 37° C. Typically, two rows were used for each population. 12 h after seeding, increasing concentrations of for example gemcitabine (0-400 nM or […]), or araC (0-10 mM) were added to each well and left in culture for further 72 h. Cell viability was measured by MTT test (CellTiter 96 Non-Radioactive Cell Proliferation Assay, Promega) and the number of living cells in each well was evaluated by measuring the OD at 570 nm. For each population, the fraction of living cells was calculated as OD570 concentration X Gem/OD570 concentration 0 Gem, to estimate the sensitivity of the population to the prodrug.
Tests of sensitivity to anticancer drugs. Cells were seeded at 5000 cells per well in a 96-well plate and grown overnight at 37° C. Two rows were used for each population. 12 h after seeding, increasing concentrations of Gemcitabine (0-400 nM or 0-100 μM), or AraC (0-10 mM) were added to each well and left in culture for further 72 h. Cell viability was measured by MTT test (CellTiter 96 Non-Radioactive Cell Proliferation Assay, Promega) and the number of living cells in each well was evaluated by measuring the OD at 570 nm. For each population, the fraction of alive cells was calculated as OD570 concentration X Gem/OD570 concentration 0 Gem, to estimate the sensitivity of the population to the prodrug. Tests of sensitivity to antiviral drugs. Viral vectors were generated by transfection of HEK-293T cells with 10 μg of pCMVAR8.91 plasmid, 5 μg of pHCMV-G plasmid, and 10 μg of genomic plasmid SDY-dCK (described in Rossolillo et al. 2012) encoding either for the wild type sequence of the human dCK or the M36 variant. Transduction was performed on 1×10^6 HEK-293T-CD4+ cells with viral vectors. Transduced cells were selected in the presence of 0.6 μg/ml of puromycin, added 24 h after transduction. 50 to 200 individual puromycin-resistant clones were pooled and expanded obtaining the polyclonal wt-dCK cell population (wtdCK-pcP, for wt dCK polyclonal population) and the […] cell population (M36-pcP). Vectors for challenging infection in the presence of antiviral drugs were generated by transfection with 10 μg of pTopo plasmid encoding for the HIV envelope ADA (ref, plus Hamoudi 2013), 5 μg of pHCMV-G plasmid, and 10 μg of genomic plasmid SDY-Luc, which is a variant of the pSDY plasmid encoding for the firefly luciferase. These viruses were used to transduce 1×10^6 HEK-293T-CD4+-wtdCK or HEK-293T-CD4+-M36 cells. Viral infection was then monitored 48 hours after transduction. For this the medium was removed, the cells were washed twice in PBS, lysed, centrifuged, and the supernatant was used to measure luciferase activity according to the manufacturer's protocol (Promega, Fitchburg, Wis., USA) with a Glomax luminometer (Promega, Fitchburg, Wis., USA). Western blot analyses. Messa10K cell lines expressing either the wt dCK or M36, both in the context of a proviral DNA with functional LTR or with an inactivated LTR were lysed in 1×RIPA buffer, and 30, 60, 120 μg of total protein (evaluated by Bradford) for each cell type and loaded on a 12% bis-tricine gel (Invitrogen).

[2] = test system: Messa10K cells; details: cited from earlier work
[3] = target: T1, human dCK (Homo sapiens, UniProt P27707, E171K/E247K/L249M); details: cited from earlier work
T1 construct: His tag (C, cleaved yes); made in house; host or cells: E. coli BL21 DE3 pLysE (pET14b)

[4] = test system: HIV-derived vectors in HEK 293T/CD4+ cells; experiment: Tests of sensitivity to antiviral drugs: infection of hdCK-transduced cells by luciferase-encoding HIV-derived vectors; assay type: cell-based; details: luciferase 48 hours after infection
Protocol: (§1) Tests of sensitivity to anticancer drugs. […] Two rows were used for each population. […] Tests of sensitivity to antiviral drugs. […] Viral infection was then monitored 48 hours after transduction. […] Western blot analyses. […] Production and purification of recombinant dCK proteins. […] Phosphorylation tests in vitro. […] ATP was 4 mM. All experiments were performed in triplicate.
Firstly HEK 293T/CD4^+ cells were transduced at a low MOI of by the vector encoding the M36 variant and selection of the successfully transduced cells was performed using puromycin. The selected cell line was then transduced with lentiviral vectors, as described in Materials and Methods, encoding the luciferase gene and luciferase levels ere measured 48 hours after infection. A comparison with the level of luciferase detected in the parallel infection of control HEK 293T/CD4^+ cells expressing as a transgene the wt dCK gene was performed and the data plotted.

[5] = target: T2, human dCK (Homo sapiens, UniProt P27707, E171K/E247K/L249M/S169N); experiment: Phosphorylation tests in vitro (NADH-based assay) with purified recombinant dCK proteins; assay type: biochemical; details: for Km compared to wt dCK / Kcat relative to wt dCK: FIG. 9A
T2 construct: His tag (C, cleaved yes); made in house; host or cells: E. coli BL21 DE3 pLysE (pET14b)
Protocol: (§2) Methods to qualitatively and/or quantitatively evaluate phosphorylation of a compound, such as a nucleoside compound, are known to the skilled in the art. In one example, the efficiency of phosphorylation of a substrate such as the natural substrate deoxycytidine, or the prodrugs gemcitabine and AraC, is measured for example with the purified wild-type hdCK and the mutant “M36” in typically a NADH-based assay as described in (Agarwal K C. et al. 1978 Methods Enzymol 51: 483-490). Accordingly, the enzymes are typically assayed at, for example, room temperature at a concentration of 0.45 μM for dC, 0.3 μM for Gemcitabine, and 0.3 for AraC. dC is typically used at concentrations of 5 to 50 μM, Gemcitabine at concentrations of 20 μM to 1 mM, and araC is typically used at concentrations of 20μM to 0.5 mM. ATP is used typically at 4 mM.
as §1
(§3) To characterise its biochemical properties M36 and, as a control, the wt dCK protein, were produced as recombinant, C-ter His tagged proteins in E. coli, purified and tested for their efficiency of phosphorylation in vitro. As it was the case for the G12 mutant (Rossolillo et al. 2012) also for M36 the substitutions present in the mutant led to a decrease in the Vmax of phosphorylation as function of the concentration of substrate, for both dC and for gemcitabine, but while the decrease is dramatic for the dC it is only modest for gemcitabine (FIGS. 8A-B).

[6] = test system: human dCK; experiment: as above; assay type: biochemical; details: FIG. 9B, G12 values from Rossolillo et al. 2012
Protocol: as §2, §1, §3

T2 sequence (P27707 whole entry S169N/E171K/E247K/L249M): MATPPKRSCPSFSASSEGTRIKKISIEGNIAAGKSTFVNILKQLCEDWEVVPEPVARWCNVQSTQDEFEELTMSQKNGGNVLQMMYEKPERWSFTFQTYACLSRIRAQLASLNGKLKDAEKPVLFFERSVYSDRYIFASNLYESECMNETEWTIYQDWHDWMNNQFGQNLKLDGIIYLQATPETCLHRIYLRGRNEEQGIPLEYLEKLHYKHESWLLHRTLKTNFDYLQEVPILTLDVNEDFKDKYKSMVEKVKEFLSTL
T1 sequence (P27707 whole entry E171K/E247K/L249M): as the sequence (P27707 whole entry S169N/E171K/E247K/L249M) above, with N169S counted along it

## G12: hdCK mutant comprising three mutations, Glu171Lys, Glu247Lys and Leu249Met, described in Rossolillo et al. 2012 and WO2011/058081
[1]
  efficiency of SIN vectors versus wt vectors: more efficient
[2]; cells originally resistant to gemcitabine (Messa10K)
  sensitization to gemcitabine: 300 fold
[2]; gemcitabine, Messa10K
  sensitization effect relative to the one induced with the wild-type enzyme: 60 times
[3]; substrate dC
  ability to phosphorylate dC with respect to the wild type enzyme: almost complete loss of ability
[3]; substrate gemcitabine
  efficiency of phosphorylation of gemcitabine with respect to the wild type enzyme: almost unaltered

## M36: mutant human deoxycytidine kinase (hdCK) with mutations S169N, E171K, E247K and L249M; delivered as lentiviral transgene or recombinant protein
[1]; AraC, FIG. 7B
  sensitisation to AraC with respect to control cells expressing exogenous wt dCK: strong sensitisation
[1]; Messa10K, FIG. 1 and 2
  sensitisation phenotype to gemcitabine compared to G12: further improved sensitisation phenotype
[1]; cells originally resistant to gemcitabine
  sensitization to gemcitabine: 900 fold
[1]; cytarabine (AraC)
  sensitization of cells to cytarabine (AraC), factor: 10,000
[1]; fludarabine, FIG. 7A
  sensitisation of Messa 10K cells to fludarabine: no significant sensitisation
[1]
  efficiency of SIN vectors versus wt vectors: more efficient
[1]; SIN vector (inactivated LTR)
  plateau of maximum mortality: 80%
[1]; wt LTR vector
  plateau of maximum mortality: 60%
[4]; 3TC, FIG. 6
  lower infectivity versus cells expressing wt dCK: ~2 fold
[4]; ddC, FIG. 5
  resistance to infection versus cells expressing wt dCK: no significant increase in resistance
[5]; natural substrate dC
  Km compared to wt dCK: reversed
[5]; substrate AraC, FIG. 8C
  reduction of the Vmax of phosphorylation compared to wt dCK: very modest reduction
[5]; substrate AraC
  Kcat relative to wt dCK: approximately 50%
  Km compared to wt dCK: increased
[5]; substrate dC, FIG. 8A
  decrease in the Vmax of phosphorylation compared to wt dCK: dramatic
[5]; substrate dC
  Kcat relative to wt dCK: approximately 50%
[5]; substrate gemcitabine, FIG. 8B
  decrease in the Vmax of phosphorylation compared to wt dCK: only modest
[5]; substrate gemcitabine
  Kcat relative to wt dCK: approximately 50%
  Km compared to wt dCK: increased
[6]; natural substrate dC
  increase in Kcat M36 vs G12, factor: 9.5
  increase in Km M36 vs G12, factor: 3.5
[6]; substrate gemcitabine
  ratio of Kcat M36 vs G12: 1
  ratio of Km M36 vs G12: 1
